In PMC11260014 (JTO Clinical and Research Reports, 2024):

Key:
ALK-positive NSCLC = conditions: monotherapy; phase 2 study, subgroups with prior ALK TKI treatment; cited from earlier work
[1] = Pharmacokinetics from blood samples; format: in vivo, human; conditions: serum, in combination with lorlatinib or crizotinib

Molecule	Median PFS (ALK-positive NSCLC)	Ctrough level at steady state ([1]; at cycle 2)	Cmax on cycle 1 day 1 versus cycle 2 day 1 [1]
C[C@H]1Oc2cc(cnc2N)-c2c(nn(C)c2C#N)CN(C)C(=O)c2ccc(F)cc21 [Lorlatinib, lorlatinib]	6.9–7.3 mo	–	–
avelumab	–	above 10 μg/mL	similar
